# In patent US8846394B2, “Treatment of neurological deficits in the striatum or substanta nigra pars compacta” (Ethicon, Inc., priority 2004, dated 2014):
# Columns and labels:
# [1] = system: embryonic rat dopaminergic neurons; settings: in vitro; cited from earlier work
# [2] = system: adult rodent hippocampal neural progenitors; test: Immunocytochemical staining (TuJ1, TH, GFAP) of neural progenitors after 17-day culture with growth factors; type: cell-based, rat
# Method: Adult rodent hippocampal neural progenitors were isolated from adult rat brain following previously published methods [Svendson et al., Nat Rev Genet., 5(2) 136-44 (2004)]. Isolated cells were seeded at 1,000 cells/cm^2 into laminin-coated 24 well tissue culture plates (Becton Dickson, Bedford, Mass.).
# Seeded cells were initially grown in a supplemented neuralbasal medium (NBM). The NBM was Neurobasal-A media (Invitrogen, Carlsbad, Calif.) with B27 supplement (Invitrogen, Carlsbad, Calif.), and L-glutamine (4 milliMolar) (Sigma, St. Louis, Mo.). Supplemented NBM also contains epidermal growth factor (EGF) (Sigma, St. Louis, Mo.), at 20 nanograms/milliliter, and basic fibroblast growth factor, (bFGF) (Peprotech, Rocky Hill, N.J.), at 20 nanograms/milliliter).
# Set one of cells was cultured in supplemented NBM for 17 days. Set two of cells was initially cultured in supplemented NBM for 4 days. The supplemented NBM then was removed from the culture plates and cells were cultured in NBM containing MP52 (Biopharm GmbH, Heidelberg, Germany) at 20 nanograms/milliliter for a period of 13 days. Set three of cells was initially cultured in supplemented NBM for 10 days. The supplemented NBM then was removed from the culture plate, and cells were cultured in NMB containing Sonic Hedgehog, (SHH) (Sigma, St. Louis, Mo.), at 200 nanograms/milliliter, and fibroblast growth factor 8 (FGF8) (Peprotech, Rocky Hill, N.J.), at 100 nanograms/milliliter. Set four of cells was initially cultured in supplemented NBM for 10 days. The supplemented NBM then was removed from the culture plates and cells were cultured in NBM containing MP52 at 20 nanograms/milliliter, SHH at 200 nanograms/milliliter, and FGF8 at 100 nanograms/milliliter).
# At the end of the 17-day experimental period, all cultures were fixed with 4 percent paraformaldehyde (Sigma, St. Louis, Mo.) and immunocytochemical staining was performed to evaluate expression of Beta Tubulin III (TuJ1), glial fibrilary acidic protein (GFAP), and tyrosine hydroxylase (TH). […]
# Following immunocytochemical staining, fluorescence was visualized using an Olympus inverted epifluorescent microscope and images were taken with a digital camera and ImagePro software (Media Cybernetics, Silver Spring, Md.). To further quantify the response, fields of cells were counted at a magnification power of 200× to examine the percentage of positive cells for each marker and compared to control samples grown in NBM alone. A minimum of 1,000 cells were counted per condition or, if less, the total number of cells observed in that condition.
# The percentage of cells positive for a given marker was determined by dividing the number of positive cells for a particular marker by the total number of nucleated cells determined by DAPI staining.
# [3] = system: human umbilical cord cells; test: Quantitative PCR of Nurr1 and TH mRNA in umbilical postpartum cells after dopaminergic differentiation; type: cell-based
# Method: Postpartum cells were isolated from an umbilical cord and placental digestion as described in U.S. patent application Ser. Nos. 10/887,012 and 10/877,446. Briefly, human umbilical cord and placental cells were isolated from explants of postpartum tissue.
# Isolated umbilical and placental cells were seeded at 1,000 cells/cm^2 into laminin coated 24 well tissue culture plates (Corning, N.Y.). Cells were initially seeded in maintenance media (control) as described in nonprov serial no. After 4 days in maintenance media, cells were split into four groups. The first set of cells was switched to NBM supplemented with EGF (20 nanograms/milliliter) and bFGF (20 nanograms/milliliter) and grown for 13 days. Sets two through four were switched to NBM supplemented with EGF (20 nanograms/milliliter) and bFGF (20 nanograms/milliliter) and grown for 6 days. The NBM supplemented with EGF and […] was then removed and cells were cultured in NBM containing; MP52 plus SHH plus FGF8 (set two); MP52 plus SHH plus FGF8 plus retinoic acid (RA) (set three); or MP52 plus RA (set four) for a further 7 days of culture.
# At the end of the 17-day experimental period, RNA was isolated from the induced cell population using an Rneasy kit (RNeasy Mini kit, Qiagen, Valencia, Calif.). […]
# [4] = system: adult rat nigrostriatal dopaminergic system; settings: intraparenchymal injection; cited from earlier work
# [5] = immunostain, end of 17-day culture, positive cells / DAPI nucleated cells
molecule,measurement,setting,value
"MP52: human recombinant GDF5 protein, 120 amino acid residues with alanine at the N-terminus, from Biopharm GmbH (protein, UniProt P43026 382-501, looked up) Growth/differentiation factor …: APLATRQGKRPSKNLKARCSRKALHVNFKDMGWDDWIIAPLEYEAFHCEGLCEFPLRSHLEPTNHAVIQTLMNSMDPESTPPTCCVPTRLSPISILFIDSANNVVYKQYEDMVVESCGCR",survival-promoting action on dopaminergic neurons against MPP+,[1],survival-promoting actions
same,"differentiation towards an astrocytic phenotype (GFAP expression), in words",[2]; immunocytochemistry,increased expression
same,"Nurr1 expression, in words","[3]; postpartum cell cultures (umbilicus and placenta), compared to control (NBM plus EGF plus FGF8)",induced
same,"Tyrosine hydroxylase (TH) expression, in words","[3]; umbilical cell cultures, compared to control",induced
"GDF5: growth and differentiation factor protein of the TGF-beta superfamily (literature studies) (protein, UniProt P43026 382-501, looked up) Growth/differentiation factor …: APLATRQGKRPSKNLKARCSRKALHVNFKDMGWDDWIIAPLEYEAFHCEGLCEFPLRSHLEPTNHAVIQTLMNSMDPESTPPTCCVPTRLSPISILFIDSANNVVYKQYEDMVVESCGCR",protection of nigrostriatal dopaminergic system from death induced by 6OHDA lesion,[4],protects
"NBM + MP52: neurobasal medium containing MP52 at 20 nanograms/milliliter (protein, UniProt P43026 382-501, looked up, in neurobasal medium, 20 ng/mL, neurobasal medium containing MP52 at 20 nanograms/milliliter) Growth/differentiation factor …: APLATRQGKRPSKNLKARCSRKALHVNFKDMGWDDWIIAPLEYEAFHCEGLCEFPLRSHLEPTNHAVIQTLMNSMDPESTPPTCCVPTRLSPISILFIDSANNVVYKQYEDMVVESCGCR",Percentage of cells staining positive for GFAP,[2]; [5],≧80%
same,Percentage of cells staining positive for TH,[2]; [5],6.1%
same,Percentage of cells staining positive for TuJ1,[2]; [5],12.5%
